Measured values: patent publication US20240181073A1, “Antibody-Drug Conjugates Comprising an Anti-BCMA Antibody” (Sorrento Therapeutics, Inc., priority 2021, published 2024)

Legend:
[1] = system: NCI-H929 (BCMA+) cells and K562 (BCMA −) cells; test: In vitro cytotoxicity assay, Example B2, statements across all cell lines; assay type: cell-based, human; conditions: regardless of BCMA expression level; read-out: average EC50, inhibition of cell proliferation across all cell lines
Method: The in vitro efficacies of ADCs anti-BCMA-Compound 50, anti-BCMA-Compound 51, anti-BCMA-Compound 52, and anti-BCMA-Compound 53, were compared to anti-BCMA-Compound 3. Anti-BCMA-AB1 clone was conjugated with compounds 50, 51, 52, 53 or 3 and the ADCs were evaluated using the following human cancer cell lines: BCMA-negative K562 and BCMA-positive NCI-H929, purchased from the American Type Culture Collection (ATCC; Manassas, VA). […]
The in vitro assays were performed as follows: All cells were harvested by removal of a portion of the cell culture suspension followed by centrifugation at 300 g for 5 minutes, followed by resuspension in cell culture medium (described above in Cell Culture method), viable cell count (as described above in Cell Culture method), and then seeded into 384-well white wall clear bottom plates (Catalog #3765, Corning) at a density of 2,500 cells/well in growth media. […] After treatment, cell viability was determined by CellTiter-Glo 2.0 assay (Catalog #G9243; Promega; Madison, WI, USA) based on the manufacturer's instructions. CellTiter Glo reagent reacts with ATP in metabolically active cells to give a luminescent readout that is directly proportional to the number of viable cells. […] Luminescence was measured using a Tecan Spark microplate reader (Tecan; Mannedorf, Switzerland). […]

BCMA-negative K562 = test: In vitro cytotoxicity assay (CellTiter-Glo 2.0, 384-well), Example B2; assay type: cell-based, human
Method: (§1) The in vitro efficacies of ADCs anti-BCMA-Compound 50, anti-BCMA-Compound 51, anti-BCMA-Compound 52, and anti-BCMA-Compound 53, were compared to anti-BCMA-Compound 3. Anti-BCMA-AB1 clone was conjugated with compounds 50, 51, 52, 53 or 3 and the ADCs were evaluated using the following human cancer cell lines: BCMA-negative K562 and BCMA-positive NCI-H929, purchased from the American Type Culture Collection (ATCC; Manassas, VA).
(§2) Cell Culture Method: The cell lines were cultured in RPMI-1640 medium (Catalog #10-041-CV: Corning) supplemented with 10-20% fetal bovine serum (FBS; Catalog #MT35011CV; Corning) and 1× penicillin-streptomycin (Catalog #30-002-Cl, Corning) and maintained at 37° C. in a 5% C02 humidified environment. Viable cell counts were made by Trypan blue exclusion using a Countess or Countess II automated cell counter.
(§3) The in vitro assays were performed as follows: All cells were harvested by removal of a portion of the cell culture suspension followed by centrifugation at 300 g for 5 minutes, followed by resuspension in cell culture medium (described above in Cell Culture method), viable cell count (as described above in Cell Culture method), and then seeded into 384-well white wall clear bottom plates (Catalog #3765, Corning) at a density of 2,500 cells/well in growth media. Plates were maintained at 37° C. The outer wells of plates contained medium only and were used for background subtraction for the cell viability assay. Working solutions of test articles were prepared at 2× final concentrations with 5-fold serial dilutions in complete growth medium. Cell treatment was performed in either technical triplicates or duplicates and maintained at 37° C. for 120-hour assay. After treatment, cell viability was determined by CellTiter-Glo 2.0 assay (Catalog #G9243; Promega; Madison, WI, USA) based on the manufacturer's instructions. CellTiter Glo reagent reacts with ATP in metabolically active cells to give a luminescent readout that is directly proportional to the number of viable cells. Briefly, plates were removed from the incubator and equilibrated to room temperature before addition of CellTiter Glo reagent. Luminescence was measured using a Tecan Spark microplate reader (Tecan; Mannedorf, Switzerland).
(§4) Data Analysis: For Cytotoxicity assays, raw luminescence data was background subtracted with average luminescence from the outer wells containing medium only and normalized to untreated controls using Excel (Microsoft; Albuquerque, NM). Dose-response relationships and EC50 values were determined based on non-linear regression analysis of normalized data fit to a four-parameter logistic equation using GraphPad Prism 8.0.

BCMA-positive NCI-H929 = test: as above; assay type: cell-based, human
Method: as §1, §2, §3, §4

K562, MM.1R and NCI-H929 = test: In vitro cell viability assay, Example B1, statements over several cell lines; assay type: cell-based, human; conditions: AB1 clone versus AB2 clone ADCs
Method: (§5) The in vitro efficacies of ADCs anti-BCMA-Compound 1, anti-BCMA-Compound 2, anti-BCMA-Compound 3, anti-BCMA-Compound 4, anti-BCMA-Compound 5, anti-BCMA-Compound 6, anti-BCMA-Compound 7, and anti-BCMA-Compound 8, were evaluated using the following human cancer cell lines: K562, MM.1R and NCI-H929, purchased from the American Type Culture Collection (ATCC; Manassas, VA). The cells were cultured in RPMI-1640 medium (Gibco ThermoFisher; Waltham, MA) supplemented with 10% heat-inactivated fetal bovine serum (FBS: Corning; Corning, NY, USA) and 1× penicillin-streptomycin (Corning) and maintained at 37° C. in a 5% CO2 humidified environment.
The in vitro assays were performed as follows: Tumor cells were harvested by centrifugation at 300 g for 5 minutes and plated into 96-well clear bottom white-walled plates (5,000 to 10,000 cells/well in 50 μL complete medium) and maintained at 37° C. […] After treatment, inhibition of cancer cell growth was determined using the Cell Titer-Glo® 2.0 Cell Viability Assay (Promega; Madison, WI, USA) as described by the manufacturers' protocol. Luminescence was measured using a Perkin-Elmer Envision 2104 Microplate Reader (Waltham, MA).
Data were normalized to non-treated controls using Microsoft Excel (Redmond, WA, USA) and analyzed using GraphPad Prism software (version 8; La Jolla, CA, USA). […]

OPM2 tumor xenograft = test: In vivo efficacy, OPM2 tumor xenograft in SCID beige mice; parameters: species or system CB17 SCID beige mice; conditions: Experiment II, FIG. 4
Method: (§6) Female CB17 SCID beige mice, 6 weeks of age, were purchased from Charles River Laboratories.
(§7) Human multiple myeloma tumor cell lines NCI-H929 and OPM2 were cultured and expanded in RPMI 1640 medium supplemented with 10% FBS, 100 units/ml of penicillin and 100 μg/ml of streptomycin at 37° C. in a 5% CO2 humidified environment for a period of 2-3 weeks before harvesting for implantation. Cell viability determined by Trypan blue dye exclusion assay was >90% before implantation. 5 million of OPM2 or NCI-H929 cells in 100 μl of PBS—Matrigel 1:1 (v/v) mixture were inoculated to the right upper flank of each mouse by s.c. injection.
(§8) Tumor volume measurement was started at day 14 after tumor cell inoculation and performed twice weekly. The longest longitudinal diameter as length and the widest transverse diameter as width were measured by using a digital caliper. Tumor volume (TV) were then calculated by the formula: TV=[length×(width)^2]/2 and were analyzed in Excel.
(§9) The treatment was started when average tumor size reaches ˜400, 200 and 150 mm^3 for NCI-H929 tumor xenografts in Experiment I, III and IV, respectively, or ˜240 mm^3 for OPM2 tumor xenograft in Experiment I.
Mice were euthanized when tumor size reached 2000 mm^3. […]
Raw data of tumor measurements were analyzed in Excel. […]

NCI-H929 tumor xenograft = test: In vivo efficacy, NCI-H929 tumor xenograft in SCID beige mice; parameters: species or system CB17 SCID beige mice; conditions: for tumor growth: i.p.
Method: as §6, §7, §8, §9
Mice were euthanized when tumor size reached 2000 mm^3.
After tumor-bearing mice were randomized, anti-BCMA antibody (BCMA-AB1 or BCMA-AB2), anti-BCMA antibody conjugate with Compound 3 (BCMA-AB1-3 or BCMA-AB2-3) or iso-type antibody conjugate with Compound 3 (iso-3) diluted in PBS were administered to mice through i.p. injections. Treatment regimens included 8 mg/kg once, 4 mg/kg Q1W×2 and 2 mg/kg biw×4 of anti-BCMA-AB1 or anti-BCMA-AB1-Compound 3 in Experiment I (FIG. 3); 2 mg/kg biw×4 and 0.67 mg/kg biw×4 of anti-BCMA-AB1 or anti-BCMA-AB1-Compound 3 in Experiment II (FIG. 4); 1, 2, 4, and 8 mg/kg once of anti-BCMA-AB1-Compound 3 or iso-3 in Experiment III (FIG. 5); and 4 mg/kg biw×4 of anti-BCMA-AB2 or 2 and 4 mg/kg biw×4 of anti-BCMA-AB2-Compound 3 in Experiment IV (FIG. 6).
Raw data of tumor measurements were analyzed in Excel. Tumor growth curves were plotted using GraphPad Prism 8.0 software and values were presented as mean t SEM.

K562 (BCMA −) cells = test: In vitro cell viability assay (Cell Titer-Glo 2.0), Example B1; assay type: cell-based, human; conditions: Table 4; 5-day assays; AB1 clone; read-out: EC50 Values, Cell Line K562
Method: as §5
The in vitro assays were performed as follows: Tumor cells were harvested by centrifugation at 300 g for 5 minutes and plated into 96-well clear bottom white-walled plates (5,000 to 10,000 cells/well in 50 μL complete medium) and maintained at 37° C. Cells were then treated in duplicate with 50 μL of test articles prepared at 2× final concentration that were serially diluted in complete medium and incubated at 37° C. for up to 120 hrs. After treatment, inhibition of cancer cell growth was determined using the Cell Titer-Glo® 2.0 Cell Viability Assay (Promega; Madison, WI, USA) as described by the manufacturers' protocol. Luminescence was measured using a Perkin-Elmer Envision 2104 Microplate Reader (Waltham, MA).
Data were normalized to non-treated controls using Microsoft Excel (Redmond, WA, USA) and analyzed using GraphPad Prism software (version 8; La Jolla, CA, USA). Half-maximal effective concentrations (EC50) were derived from dose response curves were generated using non-linear regression analysis fit to a 4-parameter logistic equation.

[2] = Table 7, 120-hour (5-day) assay, AB1 clone

| Molecule | EC50 [1] | EC50 (BCMA-negative K562; [2]) | EC50 (BCMA-positive NCI-H929; [2]) | relative potency, comparison of Table 5 and Table 6 (K562, MM.1R and NCI-H929) | activity against K562 cells (BCMA-negative K562; 5-day assays, FIG. 8) | effect on NCI-H929 cell viability (BCMA-positive NCI-H929; 5-day assays, FIG. 8) | tumor regression / elimination (OPM2 tumor xenograft; high-dose regimen) | tumor growth (OPM2 tumor xenograft; i.p., 2 mg/kg biw×4 and 0.67 mg/kg biw×4) | tumor regression / elimination (NCI-H929 tumor xenograft; Experiment I, FIG. 3, all regimens) | tumor growth (NCI-H929 tumor xenograft; Experiment I, FIG. 3, 8 mg/kg once, 4 mg/kg Q1W×2, 2 mg/kg biw×4, start ~400 mm^3) | tumor regression / elimination (NCI-H929 tumor xenograft; Experiment III, FIG. 5, high doses) | tumor growth (NCI-H929 tumor xenograft; Experiment III, FIG. 5, 1, 2, 4, and 8 mg/kg once) | EC50 (K562 (BCMA −) cells) |
| --- | --- | --- | --- | --- | --- | --- | --- | --- | --- | --- | --- | --- | --- |
| CC[C@H](C)[C@@H]([C@@H](CC(=O)N1CCC[C@H]1[C@H](OC)[C@@H](C)C(=O)N[C@H](CN=[N+]=[N-])Cc1ccc(NC(C)C)cc1)OC)N(C)C(=O)[C@@H](NC(=O)[C@H](C(C)C)N(C)C)C(C)C [D3, reference compound] | 0.88 to 1.53 nM | 1.52 nM | 1.08 nM | – | – | – | – | – | – | – | – | – | – |
| BCMA-AB1-3: Compound 3 conjugated with anti-BCMA antibody clone BCA7-2C5 (AB1) (conjugate) VH: EVQLVESGGGLVKPGGSLRLSCAASGFTSSTAWMSWVRQAPGKGLEWVGRIKSKSDGGTTDYAAPVKGRFTISRDDSKNTLFLQMNSLKTEDTAVYYCAKGGGTYGYWGQGTTVTVSS VL: QSVLTQPASVSGSPGQSVTISCTGTSSAHGGHYYVSWYQQHPGKAPKLMIYDVSNRPSGVSNRFSGSKSGNTASLTISGLQAEDEADYYCGSYTSSGSYVFGTGTKLTVL | – | – | – | most potent | did not show activity | dose-dependently reduced | induced dramatic and prolonged tumor regressions and eliminated all tumors in about two weeks after initial treatments | significantly and dose-dependently inhibited tumor growth | induced dramatic and prolonged tumor regressions and eliminated all tumors in about two weeks after initial treatments | significantly inhibited tumor growth | induced dramatic and prolonged tumor regressions and eliminated all tumors in about two weeks after initial treatments | significantly inhibited tumor growth in a dose-dependent manner | > 100 nM |
